The text below walks through data of CN116284426A (SUNSHINE GUOJIAN PHARMACEUTICAL SHANGHAI CO LTD, dated 2023).

The EC50 is the concentration giving half of the maximal effect. Low values mean an effect from little substance, high ones a need for much substance.

Test [1] has as its target T1, GUCY2C on tumour cells (CW2, CW2-GCC#1, T84) (human, UniProt P25092 24-1073). Nature of the test: cell-based or functional assay.
Test [2] concerns the target T2, GUCY2C-His蛋白 (human GUCY2C extracellular region with C-terminal 6xHis) (human, UniProt P25092 24-430).
T2 construct: extracellular domain; Made in HEK-293F with an unspecified N-terminal signal peptide; also called 人GUCY2C-His蛋白
The test is described as follows: ELISA, GUCY2C-His coated, anti-human IgG Fab HRP (Table 9). For orientation: An ELISA detects its analyte on a solid surface through an enzyme-linked reagent.

Test [3] deals with T3, GUCY2C-Fc蛋白 (human GUCY2C extracellular region fused to human IgG1 Fc) (human, UniProt P25092 24-430).
T3 construct: extracellular domain; Made in HEK-293F with an unspecified N-terminal signal peptide; also called 人GUCY2C-Fc蛋白; not shown: human IgG1 Fc at the C-terminus in place of the 6xHis tag
Nature of the test: ELISA, GUCY2C-Fc coated, anti-human IgG Fab HRP (Table 11).

The target of test [4] is T3, GUCY2C-Fc蛋白 (human GUCY2C extracellular …). Nature of the test: ELISA, GUCY2C-Fc coated, anti-human IgG Fab HRP (Table 12).
Test [5] has as its target T2, GUCY2C-His蛋白 (human GUCY2C …). Nature of the test: ELISA, GUCY2C-His coated, anti-human IgG Fab HRP (Table 10).
The target of test [6] is T4, CD3ε-ECD-his (UniProt P07766 23-126).
T4 construct: extracellular domain; also called CD3ε蛋白
The test is described as follows: ELISA, CD3ε-ECD-his coated at 1 ug/mL, anti-human IgG Fab HRP (Table 14).

Test [7] deals with T4, CD3ε-ECD-his. The test is described as follows: ELISA, CD3ε-ECD-his coated at 1 ug/mL (Table 19).
Test [8] addresses T1, GUCY2C on tumour cells (CW2, CW2-GCC#1, …). Nature of the test: cell-based or functional assay. The source holds these as a separate data set.
The target of test [9] is T4, CD3ε-ECD-his. Nature of the test: ELISA, CD3ε-ECD-his coated; reference SP34.
The target in test [10] is T3, GUCY2C-Fc蛋白 (human GUCY2C extracellular …). The test is described as follows: ELISA, GUCY2C-Fc coated, anti-human IgG Fab HRP (Table 18).
For test [11], the target named is T2, GUCY2C-His蛋白 (human GUCY2C …). The test is described as follows: ELISA, GUCY2C-His coated, anti-human IgG Fab HRP (Table 17).

T1 sequence (P25092 24-1073): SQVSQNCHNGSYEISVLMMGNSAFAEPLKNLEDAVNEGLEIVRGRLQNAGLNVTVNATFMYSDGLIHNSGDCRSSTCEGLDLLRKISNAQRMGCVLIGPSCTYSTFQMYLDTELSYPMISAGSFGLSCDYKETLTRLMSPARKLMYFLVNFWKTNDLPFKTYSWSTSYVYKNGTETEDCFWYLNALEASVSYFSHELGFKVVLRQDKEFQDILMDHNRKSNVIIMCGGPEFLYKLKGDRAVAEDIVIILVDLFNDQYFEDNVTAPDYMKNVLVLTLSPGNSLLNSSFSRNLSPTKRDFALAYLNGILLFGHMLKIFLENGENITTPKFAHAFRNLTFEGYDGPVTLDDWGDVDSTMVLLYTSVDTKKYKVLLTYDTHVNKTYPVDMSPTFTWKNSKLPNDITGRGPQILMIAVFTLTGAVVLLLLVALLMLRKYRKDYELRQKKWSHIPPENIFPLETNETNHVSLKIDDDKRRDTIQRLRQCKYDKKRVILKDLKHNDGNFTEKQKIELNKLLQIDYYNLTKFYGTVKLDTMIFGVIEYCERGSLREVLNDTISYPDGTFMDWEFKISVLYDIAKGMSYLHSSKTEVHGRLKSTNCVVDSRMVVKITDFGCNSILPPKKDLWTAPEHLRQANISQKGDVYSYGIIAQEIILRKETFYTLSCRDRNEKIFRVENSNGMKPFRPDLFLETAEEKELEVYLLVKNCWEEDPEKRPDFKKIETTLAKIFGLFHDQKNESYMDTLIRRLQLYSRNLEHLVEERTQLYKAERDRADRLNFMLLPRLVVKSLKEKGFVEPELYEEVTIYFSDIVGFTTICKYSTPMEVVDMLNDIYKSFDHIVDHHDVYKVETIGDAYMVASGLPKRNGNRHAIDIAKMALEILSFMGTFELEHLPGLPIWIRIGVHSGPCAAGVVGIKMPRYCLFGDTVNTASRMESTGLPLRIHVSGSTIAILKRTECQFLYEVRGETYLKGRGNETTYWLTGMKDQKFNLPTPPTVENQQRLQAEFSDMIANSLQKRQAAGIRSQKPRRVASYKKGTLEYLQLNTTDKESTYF
T2 sequence (P25092 other isoform, or with tags, fused parts or gaps): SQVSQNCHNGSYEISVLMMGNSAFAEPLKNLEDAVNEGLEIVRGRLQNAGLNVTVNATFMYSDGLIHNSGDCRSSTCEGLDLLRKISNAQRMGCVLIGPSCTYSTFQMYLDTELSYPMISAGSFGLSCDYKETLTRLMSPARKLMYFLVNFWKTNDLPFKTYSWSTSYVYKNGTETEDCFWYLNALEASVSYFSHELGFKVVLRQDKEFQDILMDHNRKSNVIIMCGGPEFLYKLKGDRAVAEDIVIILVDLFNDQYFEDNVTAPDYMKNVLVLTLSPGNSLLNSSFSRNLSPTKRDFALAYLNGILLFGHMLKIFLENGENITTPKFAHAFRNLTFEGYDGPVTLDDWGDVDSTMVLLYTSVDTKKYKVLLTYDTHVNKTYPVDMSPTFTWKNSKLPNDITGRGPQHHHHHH
T4 sequence (P07766 other isoform, or with tags, fused parts or gaps): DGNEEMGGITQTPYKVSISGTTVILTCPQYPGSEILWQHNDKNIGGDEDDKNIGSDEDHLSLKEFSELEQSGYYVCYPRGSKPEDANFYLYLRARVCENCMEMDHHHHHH
T3 sequence (P25092 24-430 limits assumed): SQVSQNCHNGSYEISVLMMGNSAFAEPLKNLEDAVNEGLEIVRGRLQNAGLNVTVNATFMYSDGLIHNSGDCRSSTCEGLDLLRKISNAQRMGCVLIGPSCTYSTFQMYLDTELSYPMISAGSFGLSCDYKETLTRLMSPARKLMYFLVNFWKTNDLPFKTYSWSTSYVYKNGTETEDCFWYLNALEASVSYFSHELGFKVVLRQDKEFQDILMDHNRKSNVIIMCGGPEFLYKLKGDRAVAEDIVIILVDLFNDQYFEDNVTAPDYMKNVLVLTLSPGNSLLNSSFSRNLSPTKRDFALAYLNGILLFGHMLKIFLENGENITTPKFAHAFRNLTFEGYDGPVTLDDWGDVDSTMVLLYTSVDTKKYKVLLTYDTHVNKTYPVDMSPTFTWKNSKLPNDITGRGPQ

B1: 32H2-SP4VHL-L (bispecific antibody, human IgG1, kappa)
heavy: not shown
light: DVVMTQSPLSLPVTLGQPASISCRSSQSLVYNNGNTYLHWYQQRPGQSPRLLIYKVSNRFSGVPDRFSGSGSGTDFTLKISRVEAEDVGVYFCSQSTHVPLTFGQGTKVEIKRTVAAPSVFIFPPSDEQLKSGTASVVCLLNNFYPREAKVQWKVDNALQSGNSQESVTEQDSKDSTYSLSSTLTLSKADYEKHKVYACEVTHQGLSSPVTKSFNRGECGGGGSGGGGSGGGGSEVQLVESGGGLVQPGGSLRLSCAASGFTFNTYAMNWVRQAPGKGLEWVARIRSKYNNYATYYADSVKDRFTISRDDSKNTLYLQMNSLRAEDTAVYYCVRHGNFGNSYVSWFAYWGQGTLVTVSSGGGGSGGGGSGGGGSGGGGSQAVVTQEPSLTVSPGGTVTLTCRSSTGAVTTSNYANWVQQKPGQAPRGLIGGTNKRAPGVPARFSGSLLGGKAALTLSGAQPEDEAEYYCALWYSNLWVFGQGTKVEIK
notes: also called 结构19
For the molecule B1, the “IC50 of T-cell-mediated killing of CW2 cells (CTG, E:T 5:1, 96 h)” value in test [1] is 0.08 nM. Moreover, the EC50 stood at 0.49 nM in [2]; 0.38 nM in test [3]; 0.43 nM in test [4]; 0.49 nM in test [5]; 1.09 nM with CD3ε-ECD-his [6].

B2: SP34 (humanized anti-CD3 monoclonal antibody) (antibody, human IgG1, kappa, V domains shown)
VH: EVQLVESGGGLVQPGGSLRLSCAASGFTFNTYAMNWVRQAPGKGLEWVARIRSKYNNYATYYADSVKDRFTISRDDSKNTLYLQMNSLRAEDTAVYYCVRHGNFGNSYVSWFAYWGQGTLVTVSS
VL: QAVVTQEPSLTVSPGGTVTLTCRSSTGAVTTSNYANWVQQKPGQAPRGLIGGTNKRAPGVPARFSGSLLGGKAALTLSGAQPEDEAEYYCALWYSNLWVFGQGTKVEIKR
notes: Full-length humanized IgG1/kappa made in HEK293F and purified on Protein A; also called SP34-HC/SP34-LC
In the test with CD3ε-ECD-his [7], B2 displayed an EC50 of 0.154 nM. In other words, the sub-nanomolar range.

B3: 32H2CH1-SP4VHL-hik (bispecific antibody, human IgG1, kappa)
heavy 1: EVQLVESGGGLVKPGGSLRLSCAASGFSFRTYAMSWVRQAPGKSLEWVATISSGSSYIYYPDSVKGRFTVSRDNAKNSLYLQMNSLRAEDTAVYYCTCYRMETFEYWGQGTLVTVSSASTKGPSVFPLAPSSKSTSGGTAALGCLVKDYFPEPVTVSWNSGALTSGVHTFPAVLQSSGLYSLSSVVTVPSSSLGTQTYICNVNHKPSNTKVDKKVEPKSCGGGGSGGGGSGGGGSEVQLVESGGGLVQPGGSLRLSCAASGFTFNTYAMNWVRQAPGKGLEWVARIRSKYNNYATYYADSVKDRFTISRDDSKNTLYLQMNSLRAEDTAVYYCVRHGNFGNSYVSWFAYWGQGTLVTVSSGGGGSGGGGSGGGGSGGGGSQAVVTQEPSLTVSPGGTVTLTCRSSTGAVTTSNYANWVQQKPGQAPRGLIGGTNKRAPGVPARFSGSLLGGKAALTLSGAQPEDEAEYYCALWYSNLWVFGQGTKVEIKGGGSDKTHTCPPCPAPELLGGPSVFLFPPKPKDTLMISRTPEVTCVVVDVSHEDPEVKFNWYVDGVEVHNAKTKPREEQYNSTYRVVSVLTVLHQDWLNGKEYKCKVSNKALPAPIEKTISKAKGQPREPQVYTLPPCREEMTKNQVSLSCAVKGFYPSDIAVEWESNGQPENNYKTTPPVLDSDGSFFLVSKLTVDKSRWQQGNVFSCSVMHEALHNHYTQKSLSLSPGK
heavy 2: not shown
light: DVVMTQSPLSLPVTLGQPASISCRSSQSLVYNNGNTYLHWYQQRPGQSPRLLIYKVSNRFSGVPDRFSGSGSGTDFTLKISRVEAEDVGVYFCSQSTHVPLTFGQGTKVEIKRTVAAPSVFIFPPSDEQLKSGTASVVCLLNNFYPREAKVQWKVDNALQSGNSQESVTEQDSKDSTYSLSSTLTLSKADYEKHKVYACEVTHQGLSSPVTKSFNRGEC
notes: also called 结构8
Consider B3, for which the “IC50 of T-cell-mediated killing of T84 cells” value in [8] is 0.002 nM. For the same molecule, the “fold weaker affinity than SP34” value with CD3ε-ECD-his [9] is roughly 10 fold. Also, the values for the EC50 (with CD3ε-ECD-his [7]; in test [10]; in [11]) were 1.92 nM, 0.869 nM and 0.428 nM, respectively.

B4: SP4VHL-32H2-hik (bispecific antibody)
chain 1: EVQLVESGGGLVQPGGSLRLSCAASGFTFNTYAMNWVRQAPGKGLEWVARIRSKYNNYATYYADSVKDRFTISRDDSKNTLYLQMNSLRAEDTAVYYCVRHGNFGNSYVSWFAYWGQGTLVTVSSGGGGSGGGGSGGGGSGGGGSQAVVTQEPSLTVSPGGTVTLTCRSSTGAVTTSNYANWVQQKPGQAPRGLIGGTNKRAPGVPARFSGSLLGGKAALTLSGAQPEDEAEYYCALWYSNLWVFGQGTKVEIKGGGGSGGGGSGGGGSEVQLVESGGGLVKPGGSLRLSCAASGFSFRTYAMSWVRQAPGKSLEWVATISSGSSYIYYPDSVKGRFTVSRDNAKNSLYLQMNSLRAEDTAVYYCTCYRMETFEYWGQGTLVTVSSASTKGPSVFPLAPSSKSTSGGTAALGCLVKDYFPEPVTVSWNSGALTSGVHTFPAVLQSSGLYSLSSVVTVPSSSLGTQTYICNVNHKPSNTKVDKKVEPKSCDKTHTCPPCPAPELLGGPSVFLFPPKPKDTLMISRTPEVTCVVVDVSHEDPEVKFNWYVDGVEVHNAKTKPREEQYNSTYRVVSVLTVLHQDWLNGKEYKCKVSNKALPAPIEKTISKAKGQPREPQVYTLPPCREEMTKNQVSLSCAVKGFYPSDIAVEWESNGQPENNYKTTPPVLDSDGSFFLVSKLTVDKSRWQQGNVFSCSVMHEALHNHYTQKSLSLSPGK
chain 2: not shown
chain 3: B3 light
Regarding B4, in the test with CD3ε-ECD-his [9], the “fold weaker affinity than SP34” value is roughly 10 fold. In addition, the EC50 with CD3ε-ECD-his [7] came out at 4.02 nM; in test [10], 1.08 nM; in [11], 0.733 nM.

B5: 32H2-SP4VHL (bispecific antibody, human IgG1, kappa)
heavy: not shown
light: B3 light
notes: also called 结构1
As to B5, the EC50 in [4] worked out at 0.29 nM; in test [5], 0.26 nM; with CD3ε-ECD-his [6], 0.3 nM.

B6: SP4VHL-32H2-KIH (bispecific antibody)
chain 1: not shown
chain 2: EVQLVESGGGLVKPGGSLRLSCAASGFSFRTYAMSWVRQAPGKSLEWVATISSGSSYIYYPDSVKGRFTVSRDNAKNSLYLQMNSLRAEDTAVYYCTCYRMETFEYWGQGTLVTVSSASTKGPSVFPLAPSSKSTSGGTAALGCLVKDYFPEPVTVSWNSGALTSGVHTFPAVLQSSGLYSLSSVVTVPSSSLGTQTYICNVNHKPSNTKVDKKVEPKSCDKTHTCPPCPAPELLGGPSVFLFPPKPKDTLMISRTPEVTCVVVDVSHEDPEVKFNWYVDGVEVHNAKTKPREEQYNSTYRVVSVLTVLHQDWLNGKEYKCKVSNKALPAPIEKTISKAKGQPREPQVYTLPPCREEMTKNQVSLSCAVKGFYPSDIAVEWESNGQPENNYKTTPPVLDSDGSFFLVSKLTVDKSRWQQGNVFSCSVMHEALHNHYTQKSLSLSPGK
chain 3: B3 light
Take B6: in the test with CD3ε-ECD-his [9], the “fold weaker affinity than SP34” value was roughly 10 fold. Moreover, the half-maximal effective concentration (EC50) with CD3ε-ECD-his [7] is 2.37 nM; in [10] it was 0.752 nM; in [11], 0.405 nM.

B7: 32H2CH1-SP4VHL-KIH (bispecific antibody, human IgG1, kappa)
heavy 1: not shown
heavy 2: B6 chain 2
light: B3 light
notes: also called 结构9
For B7, the “IC50 of T-cell-mediated killing of T84 cells” value in [8] was found to be 0.366 nM. Also, in the test with CD3ε-ECD-his [9], the “fold weaker affinity than SP34” value was roughly 10 fold. In addition, the EC50 with CD3ε-ECD-his [7] came to 1.31 nM; in test [10], 0.681 nM; in test [11], 0.264 nM.

B8: SP4VHL-32H2-L (bispecific antibody, human IgG1, kappa)
heavy: not shown
light: EVQLVESGGGLVQPGGSLRLSCAASGFTFNTYAMNWVRQAPGKGLEWVARIRSKYNNYATYYADSVKDRFTISRDDSKNTLYLQMNSLRAEDTAVYYCVRHGNFGNSYVSWFAYWGQGTLVTVSSGGGGSGGGGSGGGGSGGGGSQAVVTQEPSLTVSPGGTVTLTCRSSTGAVTTSNYANWVQQKPGQAPRGLIGGTNKRAPGVPARFSGSLLGGKAALTLSGAQPEDEAEYYCALWYSNLWVFGQGTKVEIKGGGGSGGGGSGGGGSDVVMTQSPLSLPVTLGQPASISCRSSQSLVYNNGNTYLHWYQQRPGQSPRLLIYKVSNRFSGVPDRFSGSGSGTDFTLKISRVEAEDVGVYFCSQSTHVPLTFGQGTKVEIKRTVAAPSVFIFPPSDEQLKSGTASVVCLLNNFYPREAKVQWKVDNALQSGNSQESVTEQDSKDSTYSLSSTLTLSKADYEKHKVYACEVTHQGLSSPVTKSFNRGEC
notes: also called 结构18
For B8, the figures for the EC50 (in test [4]; in test [5]; with CD3ε-ECD-his [6]) were 0.78 nM, 1.21 nM and 1.16 nM, respectively.
